Earlier results in patent US11407822B2, “Treatment of fibrodysplasia ossificans progressiva” (REGENERON PHARMACEUTICALS, INC., priority 2014, dated 2022).

Assays:
[1] = tested on: Activin A mediated signaling through ACVR2A and/or ACVR2B; details: as described for the antibody in US2015/0037339 or U.S. Pat. No. 8,309,082
[2] = biological target: T1, Activin A binding to ACVR2A or ACVR2B (Homo sapiens, UniProt P08476); details: as described for the antibody in US2015/0037339 or U.S. Pat. No. 8,309,082
T1 sequence (P08476 311-426): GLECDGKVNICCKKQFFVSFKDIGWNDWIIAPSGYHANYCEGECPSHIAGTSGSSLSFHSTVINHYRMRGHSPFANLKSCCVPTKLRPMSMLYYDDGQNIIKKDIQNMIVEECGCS

B1: H4H10430P: Antibody against Activin A designated H4H10430P in US2015037339; heavy and light chain variable regions present SEQ ID NOs:9 and 13 (antibody, V domains shown)
VH: EVQLVESGGGLVQPGRSLRLSCKASGFAFDDFAMHWVRQAPGKGLEWVSGIVWNSGDIGYADSVKGRFTISRDNAKNSLYLQLNSLRTEDTALYFCVKDMVRGLMGFNYYGMDVWGQGTTVTVSS
VL: EIVLTQSPATLSLSPGERATLSCRASQTISTYLVWYRQRPGQAPSLLIYDASNRATDIPARFSGSGSGTDFTLTISSLEPEDFAVYYCQQRSNWPITFGQGTRLEIK
- inhibition of Activin A signal transduction through ACVR2A and/or ACVR2B [1]: inhibits signal transduction through one or both of these receptors
- inhibition of Activin A binding to ACVR2A and/or ACVR2B [2]: inhibits binding of Activin A to ACVRV2A and/or ACVR2B
